{
  "source": "the DeepSol protein solubility set",
  "data": [
    {"assay": "soluble on expression in E. coli; label from the status in PepcDB or PDB records", "values": [
      {"sequence": "MAHHHHHHMKGVKFRDNFVKLKEEGPRNATTTNFYGSYFLSENEHLFDINEFEKNLEMKMHKNEENLLILEVKNLNVSIANALRRIMLAEVPTIAIEKVNIFQNTGIIADEILCHRLGLIPFKFDADLINFKEEYEKYNHLNCFCFKLHVKFTKKAGSSETCQSIYSRDLKWCPINEHQKARFQKNPPRVVDDNILITKLSNGQEIELICFLEKGIGKTHAKWSPVCTAVYKMYPAFSFNTCEKFTQEEKKDLVNICPKNVFDVEDSDTLVAKNPLNCSSCRVCIEKYPKKISFEKVKNHFIFTIESTGCFSSADIFRKALLILKDKVVSVKEVLEDQTKA", "soluble on expression in E. coli": "not soluble"},
      {"sequence": "MSDARLAELAAAVGLQLDWQDANGRPQRVDPEVQRGLLEALGYPAQSPQQIEQSLAALARLREDSANLGLLVGECGQPLEQALGPAGTPGELVYEDGTRIALRLDAEGRLPAQARSGYAQLSLEQREWAVAMAPPSCPSLASLAPGRSRRWGLAAQVYALRRPGDGGLGDSAALEDLLRSAARHGADALAISPLHALAEANGHAYSPYSPSSRLFFNVLHAAPATILGAAAVEQAIRRAGLAAEMARLESLELIDWTAAADLRMRLLRQLHRDFTERASPLRHDLAEFRREAGEALLHHCRFETLQAHLGAGPDWRRWPEPLRRPGEPAVAAFCADHAEEVDFRAFGQWLTQRCLQHAQRQAREAGMAIGLVADLAVGADGGGSQAWSRQEELLAEVNVGAPPDILNQSGQDWGVSAFNPEGLRRHGYRAFREMLRANLAWPGGLRIDHVMGLQRLWLIPRGQPPHAGAYLRYPQRELLRLLALEASRASALVIGEDLGTVPEGLREELARRQVLGTRVLLFERRGERFVPPAQWPADAMATTSTHDLPSLSGWWRGRDIHWRGRAGHRSAEECAADLELRAEERRALAASLEPPVDPDPAAEVPLDACIGYVGATPAPLVLLPLEDALGSLEQPNLPGPGDAHPNWRRRWPENAAQMLGTPQVDRRLRLLERSRRDAEEA", "soluble on expression in E. coli": "not soluble"},
      {"sequence": "MGHHHHHHSHMAASTASQRPLKGILKDNTSTTSSMVASAEHPRGSVHEQLSKKSQKWDEMNILATYRPADKDYGLMKIDEPSTPYHSTMGDDEDACSDTETTEAMATDSLAKNLAAAEGLEPKYQVQEQESSGEEDSDLSPEEREKKRQFEMRRTLHYNEGLNIKLARQLISKDLHDDDKVEEMLETAHGESMNTEESNQGSTASDQQQNKSRSS", "soluble on expression in E. coli": "not soluble"},
      {"sequence": "MRSSKGGRGRQAAPKTAPTTVCYCDGKRELGSVEVVCSTCLKWFHGRCLKEFHELNSNGVPFMICYTFTCKQCRPTAEDWKAKKADLVQMCVTVLATLSAERLKADGKLSAEHVPEDFTYLSLKDEIVPYMNENWYMLTAIKQKKEWHQNLAPTLLKEKNIFVQHNDDDDLFALAEKNLSLLGPLHEAVKLIGKRPIERENREPRHIELPPIEGPKTRGASKRRHAEAPVTGKKQKLAADYSSTAAPNGVQIDIPFSKDNYRYYLTEVDPNVPEDPAWNQNQSSAYVIPSFHYRELLNPTVNVSSNDRAFQLSINGNSITGFEGYSMARASHGVSKGTWYFEVNFDDQPDDSHIRIGWSQSYASLQACVGYNKFSYGWRSKHGTKFHEAKGKKYHFGGFKQGDVLGCLIHLPVDKKLQIPANLPSEKYLPVSHKGFNLISFKANYFFEVQEESADIAKTLVEMPGSYIEFFHNGKSCGKAYENIYAGAYYPSISIFKSATATMNLGPKFRNLPRGATGIHARADEQQHEQTLSDMLYLVSKEVNLDHPPRVKREDDDDVKDIKKEIKQEI", "soluble on expression in E. coli": "not soluble"},
      {"sequence": "MESIKVVIVGGGQAGIAMGYYLVKEKVPFMILDANEQVGDSWRNRYDSLVLFTPRTYSQLPGFPMDGAPNGFPTKDEMASYLQQYANHFNLPMRHHTKVDRVTRQQNGRFHLKTTNGWIEAEKVVIATGAFQKPYLPPVLDSANNEMSQVHSSAYRNPAQIPGKSVLVVGGGNSGAQIAVELAKERNVTMAISHPFRFLPLKLLNKSMFSWLEWGGLLYAGIDTTRGRWFKKQKDPIFGKELKSLIKKGQIHLKPRVMNVQGKEVEFADHSRLSFDRIIWSTGFSPSYEWIDIDGVIATNGWPIHNRGITNIRGLYFLGLPWQYQRGSALVCGVGRDAEYLVPFIKHGDK", "soluble on expression in E. coli": "not soluble"},
      {"sequence": "MEKELKALTKRLQQYNEQLLLIARRARERNEEPDFFGDVKPMAEEVQAVAERWKDAASRWVRHARPKYVHERQIEAAADHMAKLCVEAFYPSVPERRIKQYSQAVAYTLALVKERLDDTSEAGKERL", "soluble on expression in E. coli": "not soluble"},
      {"sequence": "MSLKRKVLFTAVMVLAGLQLLSGCGKTEASANDTVVLRYAYASNSQPVIDSMKKFGELVEEKTDGKVQIEYFPDGQLGGETELIELTQTGAIDFAKVSGSALESFSKDYSVFAIPYIFDNEKHFFKVMDNQALMQPVYDSTKKLGFVGLTYYDSGQRSFYMSKGPVTSPDDLKGKKIRVMQSETAIKMVELLGGSPVPMGSSEVYTSLQSNLINGAENNEFVLYTAGHGGVAKYYSYDEHTRVPDIVIMNEGTKERLTAKQEQAIEEAAKESTAFEKTVFKEAVEEEKKKAQAEYGVVFNQVDSEPFQKLVQPLHESFKNSSEHGELYQAIRQLADEGGSHHHHHH", "soluble on expression in E. coli": "soluble"},
      {"sequence": "MGSDKIHHHHHHMNTFPAVLIGGPPHSGKSVLTYLLTQYLRQRGIEHYVLRACPDGEGDWSQESTPDLVRLLRQKGAFDRTFVDRVCRDIEQRHLPLLVDVGGRPTLDQERIIQRCTHAIVLSATPQGMDEWRNRVEQYGLIIVAELHSELHGSDQIEVEKPVLRGVISGLERNAPTGGIVVEALANRLARLMHYDQAELVQQHLQRAPAELVVDLDRLARQMWVEATQRRWIPPDLPQILDSIPAKTPLAIYGRGPNWLYAALAGHTAPAPFSLFDPRLGWAQAQSLRRVPQPVADVIRWQTREEQDYTLLKAHLLEPYLDYDDLSALTVPRLDPQRGVVVSGKLPFWLLTSLIVTYHEHPWLAVIQPQLNPNSVIIFSRCEDYRPGNSIQVVLD", "soluble on expression in E. coli": "not soluble"},
      {"sequence": "MYFMEILTCIKQVPGTTSVEVDETTGVLKRDGVDSKMNPYDLYALETALRIKEDKKANLKVLSMGPPQAKKVIEESFMMGADEGALISDRRFGGADVLATSYTISQGIKKMGKVDLIICGKQTTDGDTAQVGPEVAEFLDIPHVTNVTKLIEVKDESIVVEIDMPNDLQVCEIEYPCLITVEKDIFQPRLPSFKLKLNTKDREIPVYSLDDFEDKNENNYGLNGSPTQVVRIFPPKPNTDKNIVRGNADELSFALVNKLEELKLV", "soluble on expression in E. coli": "not soluble"},
      {"sequence": "MIIREQRVEKFNAGKAVYQSVSKTESLARTAKDRKICANLEEAIRRSGLKDGMTVSFHHAFRAGDCVVNMVMNKIAEMGFKNLTLASSSLIDSHYPLIEHIKNGVVTKIYSSGLRGQLADEISRGLLAEPVNIHSHGGRVHLIKAGELKIDVAFLGVPCCDKFGNANGFSGKSKCGSLGYARIDAEYADKVVLLTEQFDEYPLNPISIGQDNVDLIVQVDEVGDPEKIGGGATRMTTNPRELLIARKCAQVIFASGYFKDGFSLQTGTGGASLAVTRFLEDKMRREQITAGFALGGITSSIVALHEAGLIKKLIDVQSFDKDAAESLARNPNHIEVSANQYANYSSKGPSVECLDIVVLSALEIDTQFNVNVLTGSDGVIRGASGGHSDTAASAQVAIIVAPLVRGRIPTVVEQVITCVTPGENIDILVTDHGVAVNPKRLDLVDKLTAAGLELFTIEQLCARAYSITGKSKEIEFKDKPVAVVRYRDGSVIDTVYQIKELEHHHHHH", "soluble on expression in E. coli": "soluble"},
      {"sequence": "SLSKEKISVQENKKMATIRDISLKCGVSVSTVSKVLNGYREIGEETSKAVMKAAEELGYVPNSYARQLKLKKSYNIGVLFDTLSVYGLKNEYFAHILAALRENASQGGYDITFIENNIGNRRMTYLEHCKYRNFDGICIVCADFTNPEVLDVVNSDFPVVTIDHSFNEAISILSDNSGGMRDLAQYIVSMGHKKIAYIHGNKSSVTHNRLVAFHQVLAEHDIVIPEYYMKEGEYRLAESAEEFTYELLNLSDRPTCILASDDYAALGVIKAIKRAGLRFPEDISVAGFDGISISQALEPKLTTVKQDTEKLGEQAAKKLICLMESPMTTPLEHIVLKAELIIGDSVKKLREG", "soluble on expression in E. coli": "soluble"},
      {"sequence": "MAMNVTEIVLKKPVTAHNEMLHVLELREPTYDEIEALGFPFIISGEGSIKLDSQVALKYIPLLAGIPCSSAAQMAKLDIFKTSMQILRFFTQSETGSTSGNDSTMLPGSGN", "soluble on expression in E. coli": "not soluble"},
      {"sequence": "MAHHHHHHMECYDNTKQKDLQEEHDVVRNFRRYYFQEKEEMHIAAIKSISDVLKNSISETNFELFINMNEAKCKLNNFINNNQTQQDIISVPHSKRMTIYPIISSCDIYHHFVVKKYTHNENNFHVLKNVIENNADEFSASLQKSLETIGSSSNIMFLNKHTTILTHSNSDCVKSLIMDVVKNQNKQVSIYFTCTSQVNLNYEEKEKKFDENFLEELNKENINITKIDLTQVKDIINKIDFVLIGSEIVTDNGGIINKKGIKLISELCLLYKKPFYVTCQAYKFLKIDKNKCSKDFYTFCTQTVTNNFNNIYEFVSPDFITLFYTDIGIFPPSNISYELSKLYINDAFYF", "soluble on expression in E. coli": "soluble"},
      {"sequence": "MAHHHHHHMDGGGRVAGTGVQLKPATVHGSVECVEFDKLSGSSNLFALQTMPVYFGASRVPWRLLDVGVKERKPASESGSAGAAMWLALVRFPPRGACPMPAAMGGWGVR", "soluble on expression in E. coli": "not soluble"},
      {"sequence": "MAHHHHHHMSITAGTLPPVKGTSVKKSPRKGRPADSMGNGTGAAADPHCYHKCRCYGHDDTLPNYKLLTIPRTNNYYAATGGCPCVPRVAAHPGSWRLKEGQLRSSTYRCGTGCIKKSAALTLGCCHHSGDQYGWRRGPHTVLDKNTAATGKCDTFGNLAFKSTSRAYCAVGGDDLSDVSSASPQKLEDLEALILEEHQQRMRVEEDVDELAGIQRNGTADWYKKIHHDAERRRLLAQISEVELQDLLRDVKNIVDRPLNQTNMDLLRRILHRQEHLQRQREYYAAQELE", "soluble on expression in E. coli": "not soluble"},
      {"sequence": "GEEDLCAAFNVICDNVGKDWRRLARQLKVSDTKIDSIEDRYPRNLTERVRESLRIWKNTEKENATVAHLVGALRSCQMNLVADLVQEVQQARDLQNRSGAMSPMSWNSDASTSEASHHHHHH", "soluble on expression in E. coli": "soluble"},
      {"sequence": "SHMTPDIILQRTGIDVRAVEQGDDAWHKLRLGVITASEVHNVIAKPRSGKKWPDMKMSYFHTLLAEVCTGVAPEVNAKALAWGKQYENDARTLFEFTSGVNVTESPIIYRDESMRTACSPDGLCSDGNGLELKCPFTSRDFMKFRLGGFEAIKSAYMAQVQYSMWVTRKNAWYFANYDPRMKREGLHYVVIERDEKYMASFDEIVPEFIEKMDEALAEIGFVFGEQWR", "soluble on expression in E. coli": "soluble"},
      {"sequence": "KHDGIPAECTTIYNRGEHTSGMYAIRPSNSQVFHVYCDVISGSPWTLIQHRIDGSQNFNETWENYKYGFGRLDGEFWLGLEKIYSIVKQSNYVLRIELEDWKDNKHYIEYSFYLGNHETNYTLHLVAITGNVPNAIPENKDLVFSTWDHKAKGHFNCPEGYSGGWWWHDECGENNLNGKYNKPRAKSKPERRRGLSWKSQNGRLYSIKSTKMLIHPTDSESFE", "soluble on expression in E. coli": "soluble"},
      {"sequence": "KGDDNYYIIFTSGTTGQPKGVQISHDNLLSFTNWMIEDAAFDVPKQPQMLAQPPYSFDLSVMYWAPTLALGGTLFALPKELVADFKQLFTTIAQLPVGIWTSTPSFADMAMLSDDFCQAKMPALTHFYFDGEELTVSTARKLFERFPSAKIINAYGPTEATVALSAIEITREMVDNYT", "soluble on expression in E. coli": "not soluble"},
      {"sequence": "MQMKRTAFFISDGTGITAETLGQSLLAQFENISFVKLTRPYIDTEEKARAMVQQINNAAESDGARPIIFDTIVNRDIRAVLAQSNGFMIDIFATFLSPLEQELSADSSYSVGKSHSIGHNSNYMDRIEAVNFALDNDDGARTHYYDKADLILVGVSRCGKTPTCLYMALQYGIRAANYPLTEEDMERLQLPNALKQYKHKLFGLTIDPDRLTAIRNERKPNSRYASFAQCEFEVREVESLFRRENIAYINSTHFSVEEISAKILVEKGVERRFKLEHHHHHH", "soluble on expression in E. coli": "not soluble"},
      {"sequence": "THSQLDQLLTGLVDRVAEVDHAVVLSEDGLVVSKSTGFLRDDAERLAATASGLMSLSKGVSMDFRRGPVRQALIEMGKGYLILTAAGPGAHLVVLTRQGADVGVVAYQMNMLVKKIGEHLSAPPRG", "soluble on expression in E. coli": "soluble"}
    ]}
  ]
}
